Experimental findings from patent publication US20190203227A1 (WILLIAM MARSH RICE UNIVERSITY, published 2019) are described below.

This experiment has as its target T1, wild-type recombinant adeno-associated virus serotype 2 (adeno-associated virus serotype 2, UniProt P03135 1-735; P03135 139-735; P03135 203-735).
T1 construct: Assembled virus capsid; Control virus without PIF6; also called wtAAV2; wtAAV
Description: Ni2+ column capture with immobilised PhyB, qPCR of viral genomes, far-red (730 nm) light. On the technique in general: Quantitative PCR measures a nucleic acid by following its amplification.

B1: PhyB917-His6 (other)
chain: MGASGVSGVGGSGGGRGGGRGGEEEPSSSHTPNNRRGGEQAQSSGTKSLRPRSNTESMSKAIQQYTVDARLHAVFEQSGESGKSFDYSQSLKTTTYGSSVPEQQITAYLSRIQRGGYIQPFGCMIAVDESSFRIIGYSENAREMLGIMPQSVPTLEKPEILAMGTDVRSLFTSSSSILLERAFVAREITLLNPVWIHSKNTGKPFYAILHRIDVGVVIDLEPARTEDPALSIAGAVQSQKLAVRAISQLQALPGGDIKLLCDTVVESVRDLTGYDRVMVYKFHEDEHGEVVAESKRDDLEPYIGLHYPATDIPQASRFLFKQNRVRMIVDCNATPVLVVQDDRLTQSMCLVGSTLRAPHGCHSQYMANMGSIASLAMAVIINGNEDDGSNVASGRSSMRLWGLVVCHHTSSRCIPFPLRYACEFLMQAFGLQLNMELQLALQMSEKRVLRTQTLLCDMLLRDSPAGIVTQSPSIMDLVKCDGAAFLYHGKYYPLGVAPSEVQIKDVVEWLLANHADSTGLSTDSLGDAGYPGAAALGDAVCGMAVAYITKRDFLFWFRSHTAKEIKWGGAKHHPEDKDDGQRMHPRSSFQAFLEVVKSRSQPWETAEMDAIHSLQLILRDSFKESEAAMNSKVVDGVVQPCRDMAGEQGIDELGAVAREMVRLIETATVPIFAVDAGGCINGWNAKIAELTGLSVEEAMGKSLVSDLIYKENEATVNKLLSRALRGDEEKNVEVKLKTFSPELQGKAVFVVVNACSSKDYLNNIVGVCFVGQDVTSQKIVMDKFINIQGDYKAIVHSPNPLIPPIFAADENTCCLEWNMAMEKLTGWSRSEVIGKMIVGEVFGSCCMLKGPDALTKFMIVLHNAIGGQDTDKFPFPFFDRNGKFVQALLTANKRVSLEGKVIGAFCFLQIPSPELQQALAVGGSHHHHHH
modifications: phycocyanobilin (PCB) chromophore bound after incubation with 5 uM PCB (residue not stated)
notes: Light-switchable phytochrome B fragment, immobilised on a Ni2+ column
Consider B1, for which the binding result is given as “no binding”.

B2: PhyB651-His6 (other)
chain: MVSGVGGSGGGRGGGRGGEEEPSSSHTPNNRRGGEQAQSSGTKSLRPRSNTESMSKAIQQYTVDARLHAVFEQSGESGKSFDYSQSLKTTTYGSSVPEQQITAYLSRIQRGGYIQPFGCMIAVDESSFRIIGYSENAREMLGIMPQSVPTLEKPEILAMGTDVRSLFTSSSSILLERAFVAREITLLNPVWIHSKNTGKPFYAILHRIDVGVVIDLEPARTEDPALSIAGAVQSQKLAVRAISQLQALPGGDIKLLCDTVVESVRDLTGYDRVMVYKFHEDEHGEVVAESKRDDLEPYIGLHYPATDIPQASRFLFKQNRVRMIVDCNATPVLVVQDDRLTQSMCLVGSTLRAPHGCHSQYMANMGSIASLAMAVIINGNEDDGSNVASGRSSMRLWGLVVCHHTSSRCIPFPLRYACEFLMQAFGLQLNMELQLALQMSEKRVLRTQTLLCDMLLRDSPAGIVTQSPSIMDLVKCDGAAFLYHGKYYPLGVAPSEVQIKDVVEWLLANHADSTGLSTDSLGDAGYPGAAALGDAVCGMAVAYITKRDFLFWFRSHTAKEIKWGGAKHHPEDKDDGQRMHPRSSFQAFLEVVKSRSQPWETAEMDAIHSLQLILRDSFKESEAAMNSKVVDGVVQPCRDMAGEQGIDELGAHHHHHH
modifications: phycocyanobilin (PCB) chromophore bound after incubation with 5 uM PCB (residue not stated)
For B2, the binding result is on record as “no binding”.
